The record followed here is patent publication US8741844B2, “Use of mutated antithrombins for treating or preventing coagulation disorders” (Universite Paris-Sud XI, priority 2007, dated 2014).

Substitutions are numbered along the chain they refer to. Names may count otherwise.

Assay [1] relates to pentasaccharide bound plasma antithrombin (plasma anti-factor Xa activity). Description: Rotachrom heparin anti factor Xa assay in pentasaccharide containing human plasma (competition with plasma antithrombin for pentasaccharide binding). It counts as biochemical. To be noted: for virtual pentasaccharide concentration (residual anti-factor Xa activity): human plasma pool with 3 μg/ml pentasaccharide; for effect on anti-Xa activity of pentasaccharide containing plasma sample: human plasma, pre-incubation 30 min at 37° C. As to the method:
Anti factor Xa inhibitory activity of mutated antithrombins AT-R393H(SEQ ID NO: 4), AT-Pro394 (SEQ ID NO: 6), AT-ΔR393-5394 (SEQ ID NO: 18), AT-ΔR393 (SEQ ID NO: 8), AT-ΔS394 (SEQ ID NO: 10), AT-N135Q-R393H(SEQ ID NO: 14), AT-N135Q-Pro394 (SEQ ID NO: 16), AT-N135Q-ΔR393-S394 (SEQ ID NO: 24), AT-N135Q-ΔR393 (SEQ ID NO: 20), AT-N135Q-ΔS394 (SEQ ID NO: 22) is measured in pentasaccharide containing plasma. The plasma concentrations of pentasaccharides are defined on the basis on those measured in patients treated by the pentasaccharide under the conditions of a regular (curative) use of this molecule or in patients presenting an overdose of this drug, knowing that the optimal equilibrium concentration is 1.20-1.26 mg/L and the minimal equilibrium concentration is 0.46-0.62 mg/L during a curative pentasaccharide treatment (monograph, Arixtra®).
The anti factor Xa assay is performed using the Rotachrom® heparin method (Stago) adaptated for absorbance reading on a microplate reader (Dynatech MR 5000), or a STA analyser (Stago).
The procedure consists in mixing 30 μl of pentasaccharide containing plasma sample diluted four times in kinetic buffer, with 75 μl of chromogenic substrate (1 mM, provided in Rotachrom® heparin kit). After 4 min incubation, 75 μl of bovine factor Xa (24 nM, Rotachrom® heparin kit) is added to the plasma-substrate mixture. The factor Xa activity is measured a 405 nm absorbance increase, resulting from cleavage of the chromogenic substrate, using a microplate reader (Dynatech MR 5000). The rate constant (k), proportional to anti-factor Xa activity, is obtained by fitting the substrate hydrolysis curve to equation (3) or (3′).
Firstly, the assay is calibrated in citrated (0.105 M) normal human plasma containing pentasaccharide concentrations ranging from 0 to 3 mg/L. A standard curve is generated and anti-factor Xa activity is expressed as mg of pentasaccharide per liter of plasma.
Secondly, to evaluate the anti factor Xa inhibitory activity of mutated antithrombins, the mutated antithrombin (0-0.6 g/L, preferably 0.15-0.6 g/L, final concentration, in kinetic buffer) is pre-incubated with an equal volume of pentasaccharide (0-3 mg/L, preferably 1-3 mg/L) containing plasma samples, during 30 min at 37° C.
Under these conditions, the mutated antithrombin concentration range from one to four times that of the plasma antithrombin level, which is compatible with a therapeutic use of antithrombin. Indeed, very high doses of mutated antithrombin, with a 5 fold increase in plasma antithrombin level, have already been used during clinical trials without side effects (Leitner J M, Firbas C, Mayr F B, Reiter R A, Steinlechner B, Jilma B., Recombinant human antithrombin inhibits thrombin formation and interleukin 6 release in human endotoxemia. Clin Pharmacol Ther. 2006 January; 79(1):23-34). Anti factor Xa inhibitory activity is then evaluated as previously described.
To estimate whether mutated antithrombin can be used as reversal of pentasaccharide in case of over-dosing, AT-N135Q-R393H(SEQ ID NO: 14) and AT-N135Q-Pro394 (SEQ ID NO: 16) are tested in Rotachrom® heparin assay for their ability to restore factor Xa activity. Under conditions of treatment for prevention of venous thromboembolic events, optimal pentasaccharide concentration ranges between 1.2 and 1.26 μg/mL in plasma. To mimic an over-dosing, pentasaccharide is added to human plasma pool at concentration of 3 μg/ml. Rotachrom® heparin assay is then performed by incubation of plasma over-dosed with pentasaccharide in the presence of mutated antithrombin in a ratio 1/1, 2/1, and 4/1 compared to plasma antithrombin concentration (i.e. 0.15, 0.3, 0.6 g/l). In this ex vivo assay, anti-factor Xa activity is proportional to the amount of pentasaccharide bound natural antithrombin present in tested plasma, which amount is directly proportional to pentasaccharide concentration in plasma. […]

For assay [2], the system named is plasma anti FXa activity in mice treated with pentasaccharide. Briefly: Murine model: mutated antithrombins as antidotes of fondaparinux, plasma anti FXa activity. It counts as in vivo, mouse. To be noted: injection of mutated antithrombin after fondaparinux. As for the experimental part: The efficiency of the mutated antithrombins AT-R393H(SEQ ID NO: 4), AT-Pro394 (SEQ ID NO: 6), AT-ΔR393-S394 (SEQ ID NO: 18), AT-ΔR393 (SEQ ID NO: 8), AT-ΔS394 (SEQ ID NO: 10), AT-N135Q-R393H(SEQ ID NO: 14), AT-N135Q-Pro394 (SEQ ID NO: 16), AT-N135Q-ΔR393-S394 (SEQ ID NO: 24), AT-N135Q-ΔR393 (SEQ ID NO: 20), AT-N135Q-A5394 (SEQ ID NO: 22) as antidotes is evaluated in a murine model.
The different drugs to be tested (fondaparinux, low molecular weight heparin, full length heparin and the mutated antithrombins) are administrated by intra-venous injection in the caudal vein to avoid the variability encountered when administration is performed subcutaneously. However, Heparin derivatives (fondaparinux, low molecular weight heparin and full length heparin) could also be administrated subcutaneously.
The blood is collected by punction in cave vein into tubes containing 0.105 mol/L trisodium citrate (1:10). Platelet-poor plasma is obtained by centrifugation at 2300 g for 10 minutes at 12° C. and stored at −80° C. until use.
The following elements are determined: • the doses of fondaparinux inducing an overdose in mice, • the mutated antithrombins time course, and in particular the time required to observe a maximal biological effect, • the minimal doses of mutated antithrombins necessary to neutralize fondaparinux.
For each of these experiments, 4 groups of 5 mice each are used: • In the first group mice receive fondaparinux vehicle and then antidote (mutated antithrombin) vehicle. • In the second group, mice receive fondaparinux and then antidote vehicle • In the third group, mice receive fondaparinux vehicle and then antidote • In the last group, mice receive fondaparinux and then antidote
Anti FXa activity measurements is performed as previously described using a Stachrom Heparin® kit on a STA (Stago, France) or a Rotachrom Heparin® kit with procedure adapted for measurement in microplate reader (Dynatech MR 5000). A calibration curve with pentasaccharide is performed, allowing the expression of the results in nmol/ml (or in mg/L) of plasma.
Thus, the antidote (mutated antithrombins) is administered intravenously, 5 min after the intra-venous injection of the fondaparinux, and 5, 15 or 30 min after the subcutaneous injection of the fondaparinux.
The mutated antithrombin time course is studied by measuring the plasma anti-Xa activity 5 min, 10 min, 20 min and 40 min after the antidote administration.
Once the time of action determined, a dose response curve is performed in vivo to determine the dose of antidote necessary to obtain a decrease in Fondaparinux plasma concentration within the therapeutic range around 1.2 nmol/ml (or 2 mg/L), or around 0.7 nmol/ml (or 1.2 mg/L).

[3] abbreviates: mutated antithrombin ratio 1/1 to plasma antithrombin (0.15 g/l).

With “AT-N135Q-R393H: human antithrombin with substitution at 393 by Histidine and at 135 by Glutamine”, the “virtual pentasaccharide concentration (residual anti-factor Xa activity)” value turned out to be 1.04 µg/mL in assay [1] (setting [3]), 0.49 µg/mL in assay [1] (ratio 2/1 (0.3 g/l)) and 0.29 µg/mL in assay [1] (ratio 4/1 (0.6 g/l)). For the same molecule, the “effect on anti-Xa activity of pentasaccharide containing plasma sample” value (“effect on anti-Xa activity” for short) in assay [1] is listed as “significant decrease”. Moreover, the “plasma anti FXa activity in mice treated with pentasaccharide” value (“plasma anti FXa activity in mice treated” below) in assay [2] was “significant decrease”.
For “AT-R393H: human antithrombin (SEQ ID NO:2) with substitution of the amino acid at position 393 by Histidine”, the “effect on anti-Xa activity” value in assay [1] was “significant decrease”. Moreover, the “plasma anti FXa activity in mice treated” value in assay [2] is “significant decrease”.

B1: AT-N135Q-ΔR393: human antithrombin with deletion of position 393 and substitution at 135 by Glutamine (protein, listed as Homo sapiens)
chain: HGSPVDICTAKPRDIPMNPMCIYRSPEKKATEDEGSEQKIPEATNRRVWELSKANSRFATTFYQHLADSKNDNDNIFLSPLSISTAFAMTKLGACNDTLQQLMEVFKFDTISEKTSDQIHFFFAKLNCRLYRKAQKSSKLVSANRLFGDKSLTFNETYQDISELVYGAKLQPLDFKENAEQSRAAINKWVSNKTEGRITDVIPSEAINELTVLVLVNTIYFKGLWKSKFSPENTRKELFYKADGESCSASMMYQEGKFRYRRVAEGTQVLELPFKGDDITMVLILPKPEKSLAKVEKELTPEVLQEWLDELEEMMLVVHMPRFRIEDGFSLKEQLQDMGLVDLFSPEKSKLPGIVAEGRDDLYVSDAFHKAFLEVNEEGSEAAASTAVVIAGSLNPNRVTFKANRPFLVFIREVPLNTIIFMGRVANPCVK
As for B1, the “effect on anti-Xa activity” value in assay [1] was “significant decrease”. In addition, the “plasma anti FXa activity in mice treated” value in assay [2] was “significant decrease”.

B2: AT-N135Q-ΔS394: human antithrombin with deletion of position 394 and substitution at 135 by Glutamine (protein, listed as Homo sapiens)
chain: B1 chain with S393R
For B2, in assay [1], the “effect on anti-Xa activity” value is “significant decrease”. In addition, the “plasma anti FXa activity in mice treated” value in assay [2] was “significant decrease”.

B3: AT-N135Q-ΔR393-S394: human antithrombin with deletion of positions 393 and 394 and substitution at 135 by Glutamine (protein, listed as Homo sapiens)
chain: HGSPVDICTAKPRDIPMNPMCIYRSPEKKATEDEGSEQKIPEATNRRVWELSKANSRFATTFYQHLADSKNDNDNIFLSPLSISTAFAMTKLGACNDTLQQLMEVFKFDTISEKTSDQIHFFFAKLNCRLYRKAQKSSKLVSANRLFGDKSLTFNETYQDISELVYGAKLQPLDFKENAEQSRAAINKWVSNKTEGRITDVIPSEAINELTVLVLVNTIYFKGLWKSKFSPENTRKELFYKADGESCSASMMYQEGKFRYRRVAEGTQVLELPFKGDDITMVLILPKPEKSLAKVEKELTPEVLQEWLDELEEMMLVVHMPRFRIEDGFSLKEQLQDMGLVDLFSPEKSKLPGIVAEGRDDLYVSDAFHKAFLEVNEEGSEAAASTAVVIAGLNPNRVTFKANRPFLVFIREVPLNTIIFMGRVANPCVK
Turning to B3, in assay [1], the “effect on anti-Xa activity” value was “significant decrease”. Further, the “plasma anti FXa activity in mice treated” value in assay [2] is “significant decrease”.

B4: AT-N135Q-Pro394: human antithrombin with Proline inserted between 393 and 394 and substitution at 135 by Glutamine (protein, listed as Homo sapiens)
chain: HGSPVDICTAKPRDIPMNPMCIYRSPEKKATEDEGSEQKIPEATNRRVWELSKANSRFATTFYQHLADSKNDNDNIFLSPLSISTAFAMTKLGACNDTLQQLMEVFKFDTISEKTSDQIHFFFAKLNCRLYRKAQKSSKLVSANRLFGDKSLTFNETYQDISELVYGAKLQPLDFKENAEQSRAAINKWVSNKTEGRITDVIPSEAINELTVLVLVNTIYFKGLWKSKFSPENTRKELFYKADGESCSASMMYQEGKFRYRRVAEGTQVLELPFKGDDITMVLILPKPEKSLAKVEKELTPEVLQEWLDELEEMMLVVHMPRFRIEDGFSLKEQLQDMGLVDLFSPEKSKLPGIVAEGRDDLYVSDAFHKAFLEVNEEGSEAAASTAVVIAGRPSLNPNRVTFKANRPFLVFIREVPLNTIIFMGRVANPCVK
For B4, the “virtual pentasaccharide concentration (residual anti-factor Xa activity)” value in assay [1] (setting [3]) turned out to be 1.16 µg/mL; in assay [1] (ratio 2/1 (0.3 g/l)) it was 0.59 µg/mL; in assay [1] (ratio 4/1 (0.6 g/l)), 0.36 µg/mL. The “effect on anti-Xa activity” value in assay [1] was “significant decrease”. The “plasma anti FXa activity in mice treated” value in assay [2] was “significant decrease”.
